# Experimental data taken from the supplement of paper PMC10724198.
# ± gives the standard deviation of the averaged measurements.
# System: Saccharomyces cerevisiae
# Experiment: protein stability index of tFT-peptide fusion (C-terminal peptide) (PSI (0-1 scale)); higher = more stable (slower turnover)
# Details: genetic background: wild type; temperature: 30 C
# 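Also: PSI is a weighted mean of sequencing reads over stability bins, variants kept only with over 10 reads, mCherry proximal and sfGFP distal, peptide attached via GGGS linker.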
row,Sequence,protein stability index
1,ERAKMYPKKKIR,0.64 ± 0.067
2,VHHHQTTCHRHR,0.682 ± 0.018
3,SIRPPPPSSFPA,0.806 ± 0.069
4,FGFYTYFRPGLG,0.698 ± 0.017
5,LPKSRIGPILNG,0.743 ± 0.12
6,DSQGSVHPEAQE,0.723 ± 0.012
7,VCLVLGGVEWCV,0.6861 ± 0.004
8,GGGWGSMDLRDR,0.712 ± 0.016
9,GSREHYGLFLGH,0.673 ± 0.032
10,SLVLPIFRIVSF,0.573 ± 0.039
11,GCCCVMNQLRRR,0.777 ± 0.088
12,AFGAPVVRHATF,0.723 ± 0.02
13,RGSPPDPRGRAG,0.685 ± 0.074
14,RLLVGFLSPFSC,0.713 ± 0.031
15,TNTEEKRKIRRS,0.697 ± 0.11
16,KKKKNKKKTKKT,0.784 ± 0.17
17,CYHIAHPSAYVP,0.679 ± 0.041
18,CFCPWFGRVCLG,0.5142 ± 0.0014
19,PPPLSSPPPRPL,0.709 ± 0.058
20,RKTKIKKLGRDK,0.644 ± 0.1
21,EHKSPYGTLRFP,0.777 ± 0.11
22,LPKARPRTNPPP,0.712 ± 0.15
23,WGGGGVLEVLLG,0.531 ± 0.008
24,GEWVNLGFGFLF,0.781 ± 0.11
25,TSGLGYVDCPKL,0.709 ± 0.033
26,PALPPPFPPFSP,0.72 ± 0.084

row,Sequence,protein stability index
1,SRPLLLLPCLLP,0.643 ± 0.014
2,PLTVARTHRGHA,0.689 ± 0.014
3,LPRPPAPPMRYM,0.70928 ± 9.3e-05
4,AGCRFRWHTVDC,0.648 ± 0.073
5,VLEAIIFRKHDN,0.74 ± 0.14
6,KKKRNSYMKGNR,0.681 ± 0.1
7,RAFEGGRHCRAG,0.67 ± 0.049
8,RSSLSGLPPLPP,0.721 ± 0.14
9,AAPAGAAKRWGT,0.641 ± 0.035
10,KEEKNEENNKKE,0.641 ± 0.033
11,PSVSPLFSSPPP,0.719 ± 0.012
12,HGQGWRPTYLSI,0.796 ± 0.1
13,LWRRPASSLLPI,0.701 ± 0.018
14,GGGRGWAGENTR,0.704 ± 0.028
15,KWQRIKNSPNRK,0.749 ± 0.059
16,FSASLLWFKEFW,0.685 ± 0.024
17,GGCRGDGMMGVG,0.552 ± 0.072
18,RKRIPSITLPPP,0.754 ± 0.063
19,QKPKDKKKRTKE,0.679 ± 0.05
20,GGGSIAPRSVGT,0.7649 ± 0.0021
21,FGGGWGGGVVLV,0.691 ± 0.0086
22,GSVGWRGGEGRW,0.59 ± 0.11
23,VFSLLRCLFRPP,0.669 ± 0.012
24,FPFLPPRSVSPP,0.696 ± 0.12
25,PPLPPPSPESVS,0.709 ± 0.056
26,GVVLVARVTGSS,0.662 ± 0.075

row,Sequence,protein stability index
1,PSPAHLPPRSPL,0.714 ± 0.2
2,QRKYTLCVRPFP,0.697 ± 0.037
3,LSSGSCLESPFT,0.732 ± 0.08
4,PSYRVVVFSLPD,0.758 ± 0.063
5,MPCPFSSASRAI,0.668 ± 0.036
6,VVDGSILTIRCL,0.6226 ± 0.0048
7,GGGRGGSTPALG,0.667 ± 0.03
8,GGGSGGRRLVRF,0.726 ± 0.023
9,GGPESMDILRFR,0.62 ± 0.069
10,PSHPPPPSPTPP,0.754 ± 0.024
11,VFAPWLFLFGFF,0.521 ± 0.017
12,RRIFTLIARRLW,0.672 ± 0.013
13,PPLSSSALPARS,0.692 ± 0.011
14,LPRLPPPPHPCP,0.741 ± 0.013
15,KVAGRLAATRSR,0.716 ± 0.013
16,GVWFWRLKGEGN,0.713 ± 0.045
17,PPIPNPPPHPLP,0.657 ± 0.057
18,WVREFSHKHVMS,0.718 ± 0.01
19,KNEEKIDKIEEQ,0.72 ± 0.09
20,SLLTQSPLLPPP,0.777 ± 0.29
21,FHVFTRTVGSVL,0.643 ± 0.075
22,RTSKRKKSDARK,0.784 ± 0.022
23,TLGTSPPPAYLS,0.638 ± 0.013
24,PPPRLVPSPPVP,0.7 ± 0.0039
25,RGRGRGGPLSGG,0.731 ± 0.017
26,APPPLPPPTLPT,0.757 ± 0.041

row,Sequence,protein stability index
1,GRKCWDRSGWTV,0.771 ± 0.014
2,PRLVALFEKNPD,0.6615 ± 0.0012
3,KTNKDKKRTKTV,0.714 ± 0.2
4,KGVEVPGERMVG,0.742 ± 0.021
5,WSGREGRGEWGW,0.791 ± 0.024
6,DGAAGTGGAMGF,0.669 ± 0.068
7,PPLPPAPTPALP,0.684 ± 0.029
8,VCVQECMPTAWR,0.704 ± 0.036
9,RSSFCGVRAWLA,0.704 ± 0.078
10,GPRPATTSPLPT,0.721 ± 0.2
11,VQLGRRGQAVEP,0.7 ± 0.036
12,TSPVPPSTPAPP,0.6686 ± 0.0045
13,IKVNAVAWLFGS,0.582 ± 0.032
14,NLKLIRSEYNLN,0.658 ± 0.042
15,QPGTRRNNHIQV,0.704 ± 0.026
16,GLCSEETPALFY,0.7173 ± 0.0043
17,TRETKKSIKKQN,0.673 ± 0.058
18,PSLPHLPSTSSC,0.681 ± 0.023
19,VVGGRWVVWSFK,0.688 ± 0.018
20,PTLPTLFPSSSL,0.7448 ± 0.0045
21,PPASFTPPFLPP,0.69 ± 0.013
22,LPPPPPLPSSPL,0.685 ± 0.018
23,GVVGWTAGLRGG,0.734 ± 0.045
24,GRVAMAVSGGVG,0.638 ± 0.023
25,LIPLPPPPLPPP,0.623 ± 0.09
26,KRSVSIESMTQA,0.699 ± 0.011

row,Sequence,protein stability index
1,RGWGGGRKVSVG,0.652 ± 0.036
2,HFLVGPLSPLLS,0.662 ± 0.019
3,LERSTCYPREPM,0.69 ± 0.1
4,AYKGTPTCKTRR,0.689 ± 0.1
5,VIDLIYSMKVRR,0.688 ± 0.034
6,TASVDQAVRWRG,0.708 ± 0.054
7,PPPPPPPLPLLP,0.667 ± 0.036
8,KNPKKMKKVTTK,0.694 ± 0.0091
9,RVYKTAYNRRTQ,0.832 ± 0.021
10,KIKGVKEEIVKM,0.686 ± 0.029
11,PEGICYCHSPAP,0.694 ± 0.013
12,FLNLPLSAFVLL,0.583 ± 0.062
13,AVSAGQASPGRA,0.681 ± 0.061
14,LLGHSTPAHVFL,0.7129 ± 0.0031
15,TNIITRHNKKDK,0.657 ± 0.078
16,LFRRVASILPRD,0.668 ± 0.013
17,RAGALYLGICDT,0.738 ± 0.069
18,SPLPPPTPLPLV,0.8075 ± 0.0021
19,PPTPPPLRPSFS,0.704 ± 0.023
20,AACLCATYPVGT,0.752 ± 0.07
21,KKLAPHPLTTRV,0.642 ± 0.078
22,CVSYLVIFDRRY,0.6742 ± 0.0043
23,GRRNGLCENPRG,0.657 ± 0.0077
24,PPVLAVRTSLDA,0.636 ± 0.021
25,PPSPSPLPHSSP,0.676 ± 0.058
26,FGCLFFSPLSIH,0.745 ± 0.043

row,Sequence,protein stability index
1,LSQISTQRPNQV,0.694 ± 0.06
2,VWAREGLGLRPP,0.673 ± 0.11
3,PPPPLPRAPFSP,0.661 ± 0.0092
4,PLPPPFPGSALL,0.727 ± 0.01
5,LRCRLFIWDGVK,0.809 ± 0.038
6,ERSHGEKGVFYL,0.73 ± 0.031
7,LSPPPLSPPSHP,0.723 ± 0.0092
8,RGFSLSCCERSI,0.749 ± 0.026
9,DPRPPRPDFRPS,0.691 ± 0.072
10,STASSFFFFCCF,0.664 ± 0.026
11,LPPPRSPPPLSA,0.622 ± 0.057
12,VGRERGRAACGE,0.662 ± 0.049
13,TALGVCPRVMQN,0.718 ± 0.039
14,RLLFPTLTAYLL,0.63 ± 0.029
15,GGGRGGFRVVVG,0.744 ± 0.042
16,TFISNYSCILSL,0.644 ± 0.013
17,LSKASNTLVDSD,0.755 ± 0.058
18,TRSISPGTFWTS,0.723 ± 0.018
19,PLRMFRGGISWR,0.734 ± 0.037
20,GKALESLEGQFT,0.728 ± 0.019
21,PAPSRRTVTDYW,0.654 ± 0.015
22,VYLTGRCRRCLR,0.702 ± 0.05
23,GVWTRTWSLQWI,0.561 ± 0.015
24,QMSAATLLFSRL,0.734 ± 0.029
25,PPPLLPPTPLPP,0.619 ± 0.0069
26,LPTSPMSCHTLT,0.76 ± 0.088

row,Sequence,protein stability index
1,KNKNKKTPARYR,0.692 ± 0.015
2,DIDGKRLLGCWI,0.6632 ± 0.00086
3,RAMWAGKGGDGW,0.738 ± 0.086
4,FPPPPFFFIPLP,0.724 ± 0.048
5,KIKTNLRQKTKN,0.654 ± 0.016
6,GFRPVVAGIGHS,0.6632 ± 0.0061
7,GGRGRWEMVGRT,0.7 ± 0.021
8,QLFAYFLGAVIL,0.611 ± 0.023
9,LPPPPPHRTGDC,0.5859 ± 0.0028
10,HPSPLHLPSPPP,0.675 ± 0.0076
11,AKRQRQQKKDKG,0.626 ± 0.014
12,TIETDIYAIARV,0.659 ± 0.041
13,HTKNCTRAVSDR,0.673 ± 0.085
14,SVPPPPRTPSSI,0.666 ± 0.03
15,GDYETPSTRSPM,0.67 ± 0.023
16,WLGFHFLFLWKC,0.587 ± 0.1
17,SFAPPPPPPLPS,0.686 ± 0.025
18,PPPPPPNPLPLP,0.68 ± 0.032
19,SFWWGGWGVGPD,0.73647 ± 0.0004
20,RGGAGRRWGRGK,0.631 ± 0.073
21,RTLPFPHAGLLF,0.6816 ± 0.0061
22,KPKKKNPREKPV,0.669 ± 0.064
23,RRSVSSRGCLFR,0.7 ± 0.008
24,GEGVVRGDGVRG,0.656 ± 0.041
25,LPPPYPRPPPFR,0.68 ± 0.005
26,VFCGRVVVGSVV,0.65745 ± 0.0006

row,Sequence,protein stability index
1,TFPSADLYYSLL,0.74 ± 0.049
2,PTTQVGRRTPLA,0.647 ± 0.029
3,IFGCPEFFCFLL,0.696 ± 0.061
4,GELGIECREVVG,0.704 ± 0.087
5,IVHIKRVLGNAA,0.636 ± 0.012
6,ILSWSGLSTGLE,0.876 ± 0.065
7,QNKKKEKKQEIQ,0.7 ± 0.042
8,IAGRPSSGFPLL,0.686 ± 0.066
9,VPSPRHFPLPPP,0.647 ± 0.049
10,TPFVPLAPLPRS,0.728 ± 0.056
11,SPPASFPLPPPP,0.6802 ± 0.0015
12,LSFLYCSDNKVA,0.6562 ± 0.006
13,PVLRPPPPLSPP,0.734 ± 0.021
14,EAERDEAQRRCA,0.686 ± 0.0076
15,PPPPAFPPPLSP,0.716 ± 0.067
16,PIAPDPAPVGLD,0.721 ± 0.014
17,PLDAPDTRVWEI,0.738 ± 0.061
18,GVAVLAGWEVLG,0.653 ± 0.021
19,SWFVGFEGAVGG,0.7563 ± 0.0046
20,ASCLSPPSPFPR,0.653 ± 0.013
